How the values were obtained:
[1] = target: human thyroid-stimulating hormone receptor (TSHR) (human) (UniProt P16473); assay: flow cytometry (FACS), 293 cells overexpressing human TSHR; negative control
[2] = target: mouse thyroid-stimulating hormone receptor (TSHR) (mouse) (UniProt P47750); assay: flow cytometry (FACS), 293 cells overexpressing mouse TSHR; negative control
[3] = target: monkey thyroid-stimulating hormone receptor (TSHR) (monkey); assay: flow cytometry (FACS), 293 cells overexpressing monkey TSHR; negative control
Chain of monkey thyroid-stimulating hormone receptor (TSHR) (monkey) (A0A2K5 entry or part of it limits assumed, form in doubt): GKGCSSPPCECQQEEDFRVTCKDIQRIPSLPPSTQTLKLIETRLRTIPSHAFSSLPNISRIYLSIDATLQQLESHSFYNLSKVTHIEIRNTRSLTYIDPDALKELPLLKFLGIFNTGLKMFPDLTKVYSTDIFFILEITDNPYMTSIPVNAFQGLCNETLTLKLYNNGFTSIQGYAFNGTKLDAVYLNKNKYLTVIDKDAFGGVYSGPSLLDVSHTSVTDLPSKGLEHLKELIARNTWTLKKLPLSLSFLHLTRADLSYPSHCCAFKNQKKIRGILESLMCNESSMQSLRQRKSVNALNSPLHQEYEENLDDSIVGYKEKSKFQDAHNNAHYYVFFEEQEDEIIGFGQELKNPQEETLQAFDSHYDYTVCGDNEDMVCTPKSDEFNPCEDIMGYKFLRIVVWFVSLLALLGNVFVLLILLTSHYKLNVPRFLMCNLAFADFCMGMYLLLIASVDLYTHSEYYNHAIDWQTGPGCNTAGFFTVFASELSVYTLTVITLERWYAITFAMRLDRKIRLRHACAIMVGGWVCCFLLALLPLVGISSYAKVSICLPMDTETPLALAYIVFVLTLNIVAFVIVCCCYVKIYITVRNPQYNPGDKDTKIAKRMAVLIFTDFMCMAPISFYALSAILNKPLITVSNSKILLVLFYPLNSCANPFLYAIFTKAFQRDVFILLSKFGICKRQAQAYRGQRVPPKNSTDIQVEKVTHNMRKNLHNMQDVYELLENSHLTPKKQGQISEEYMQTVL

Chain of human thyroid-stimulating hormone receptor (TSHR) (human) (P16473 21-764): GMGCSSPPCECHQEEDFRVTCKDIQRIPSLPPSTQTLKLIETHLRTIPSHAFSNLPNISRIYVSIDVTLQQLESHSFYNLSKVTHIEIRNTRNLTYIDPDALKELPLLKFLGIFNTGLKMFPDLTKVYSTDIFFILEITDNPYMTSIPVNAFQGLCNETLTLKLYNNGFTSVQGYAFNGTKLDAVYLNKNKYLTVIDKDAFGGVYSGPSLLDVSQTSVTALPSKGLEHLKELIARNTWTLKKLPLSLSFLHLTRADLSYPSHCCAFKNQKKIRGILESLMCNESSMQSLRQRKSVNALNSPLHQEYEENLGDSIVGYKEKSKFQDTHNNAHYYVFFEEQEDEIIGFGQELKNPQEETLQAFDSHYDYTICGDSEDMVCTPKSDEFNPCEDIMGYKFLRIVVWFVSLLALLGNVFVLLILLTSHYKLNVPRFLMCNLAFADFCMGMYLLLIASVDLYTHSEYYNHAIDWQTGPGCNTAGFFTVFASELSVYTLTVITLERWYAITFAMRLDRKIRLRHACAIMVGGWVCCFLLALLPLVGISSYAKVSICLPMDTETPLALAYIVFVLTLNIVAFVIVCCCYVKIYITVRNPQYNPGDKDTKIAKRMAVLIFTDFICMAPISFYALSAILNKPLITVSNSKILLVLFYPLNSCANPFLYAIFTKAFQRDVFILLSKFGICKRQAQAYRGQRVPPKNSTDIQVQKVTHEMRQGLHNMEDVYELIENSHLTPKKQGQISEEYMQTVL
Chain of mouse thyroid-stimulating hormone receptor (TSHR) (mouse) (P47750 22-764): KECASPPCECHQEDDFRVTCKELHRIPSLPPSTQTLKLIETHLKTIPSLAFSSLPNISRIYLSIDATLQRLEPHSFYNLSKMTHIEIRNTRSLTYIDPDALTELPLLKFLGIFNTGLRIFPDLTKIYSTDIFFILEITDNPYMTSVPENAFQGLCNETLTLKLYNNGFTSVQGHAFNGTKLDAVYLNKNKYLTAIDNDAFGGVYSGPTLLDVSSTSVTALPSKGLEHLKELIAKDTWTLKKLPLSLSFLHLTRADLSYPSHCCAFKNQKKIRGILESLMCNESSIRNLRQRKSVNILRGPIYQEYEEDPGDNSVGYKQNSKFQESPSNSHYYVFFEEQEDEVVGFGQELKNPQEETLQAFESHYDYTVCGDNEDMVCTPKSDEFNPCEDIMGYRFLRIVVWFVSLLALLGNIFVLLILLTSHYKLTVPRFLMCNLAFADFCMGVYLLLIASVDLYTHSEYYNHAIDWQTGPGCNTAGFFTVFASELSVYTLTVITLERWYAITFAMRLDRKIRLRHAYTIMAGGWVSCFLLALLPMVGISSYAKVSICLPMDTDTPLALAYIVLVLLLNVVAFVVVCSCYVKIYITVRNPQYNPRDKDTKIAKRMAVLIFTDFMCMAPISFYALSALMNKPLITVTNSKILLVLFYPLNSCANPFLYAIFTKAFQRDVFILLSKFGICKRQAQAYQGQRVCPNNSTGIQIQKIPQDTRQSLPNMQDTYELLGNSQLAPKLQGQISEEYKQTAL

Substance	Max MFI [1]	Max MFI [2]	Max MFI [3]
hIgG1 negative control (Biointron B117901) (antibody)	3590	2130	3560
hIgG4 negative control (Biointron B107804) (antibody)	1690	1530	1770

— patent EP4582451A1
